These results are taken from the supplement of paper PMC12042874.

± gives the uncertainty stated by the source.

A short description of the series: amyloid nucleation score (Sup35N fusion, yeast selection) (log enrichment); library NNK2; higher = more nucleation; inactive = no reads after selection. In outline: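 The nucleation score is a DiMSum log enrichment of output over input reads, centred on the mode score of non-aggregating sequences. Sequences under 100 input reads were excluded, and reads came from Illumina sequencing of plasmid inserts. Psi-negative yeast expressing Sup35N fused to peptides of 20 random codons were induced with 100 μM copper sulfate for 24 hours and grown 7 days at 30°C on medium lacking adenine and uracil. Random libraries had three technical output replicates.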
Consider LGLLCTVEIHYLGNMYIHRP, for which the amyloid nucleation score stood at 7.043 ± 0.045.

The substance FLVIVQPSHFGCSKSNKGVW had an amyloid nucleation score of 0.453 ± 0.66.

The substance YITYSREAETCIFVKGDFS yielded an amyloid nucleation score of -0.153 ± 1.1.

In turn, LTFLYGVGVRFCRPSLVVQS showed an amyloid nucleation score of 0.2 ± 0.24.

In turn, SIHDQLGHYVFIV registered an amyloid nucleation score of -1.16 ± 0.62.

As for KIVSWAMIIARVVYCDQDL, the amyloid nucleation score result was “inactive”.

For the substance TGDSYLYRWVSARFGHRLRS, the amyloid nucleation score is -0.314 ± 0.27.

Substance MSPWRDRSRFKIYDGPTWRM had an amyloid nucleation score of 0.728 ± 0.8.

ICQWRSWLKSTVIFCTRYDF returned an amyloid nucleation score of 3.37 ± 0.13.

In the case of MLDYFGLWSWARSSNYLEFK, the amyloid nucleation score was -1.09 ± 0.31.

IANKCVS: the amyloid nucleation score was -1.12 ± 0.55.

As for VYWCLITFNHEDAHSYCFL, the amyloid nucleation score was found to be 2.22 ± 0.26.

As for FKRDLMLYFCCSWCRKVCVY, the amyloid nucleation score was -0.432 ± 0.34.

RDLSTGSPILEFHRCTRISG registered an amyloid nucleation score of -0.172 ± 0.76.

Regarding PRKPRNVDSL, the amyloid nucleation score amounted to 0.134 ± 0.18.

On to SLLRIRQYVVWRLG, for which the amyloid nucleation score was determined as 0.079 ± 0.6.

Regarding KYEIRAASARGGSNVCFCIG, the amyloid nucleation score was found to be 0.691 ± 0.19.

The substance FPASHRVVQV came in with an amyloid nucleation score of 5.41 ± 0.065.

In the case of TYVSKIWMKRCESDILRKVI, the amyloid nucleation score result is “inactive”.

Regarding WGTCMCRKWASHFDREC, the amyloid nucleation score amounted to 2.55 ± 0.17.

In turn, YAYAEWERNRWRRDDNLNVE gave an amyloid nucleation score of -0.251 ± 0.38.

The substance WTVRSARFWMSKQVVFSTTV returned an amyloid nucleation score of 0.812 ± 0.5.

Turning to HCAEHQPASGVLVTGYWDLG, the amyloid nucleation score is 0.444 ± 0.54.

NRKTSGLYVFRWRKRPR had an amyloid nucleation score of 0.264 ± 0.4.

For the substance MAAVSETHPGAEGSNRVVSE, the amyloid nucleation score came to 3.06 ± 0.07.

Regarding YKILQFETSFRT, the amyloid nucleation score is -0.977 ± 0.63.

For the substance WGRLGARCYRRILVPGRCLE, the amyloid nucleation score is -0.756 ± 0.48.

In turn, GVCVI came in with an amyloid nucleation score of 0.775 ± 0.4.

Take YSGWVSDS: the amyloid nucleation score result was “inactive”.

On to FLFQWLLEKPYFYPAFCKCK, for which the amyloid nucleation score is 4.49 ± 0.061.

As to CLSLSLVMSVGVLKSISQYS, the amyloid nucleation score is -0.017 ± 1.

Regarding SFVLIKIMILLCDAVYGH, the amyloid nucleation score was 3.58 ± 0.054.

For PCYFINFLRFSWNIQLYNVL, the amyloid nucleation score is -0.668 ± 1.1.

The substance IRLTRY came in with an amyloid nucleation score of -0.338 ± 0.35.

With LKAWYYSVYSRTVTYSPMLH, the amyloid nucleation score was -1.03 ± 0.61.

With DYTSVSMVIHVCKRL, the amyloid nucleation score amounted to 5.59 ± 0.097.

CFTCHTIYCVYSKFKRDMDR displayed an amyloid nucleation score of 3.56 ± 0.047.

YWSYSLGGSQEYSGHTMA gave an amyloid nucleation score of -0.135 ± 0.35.

Substance FHDNVTQFFISISAKIYKA came in with an amyloid nucleation score of 4.45 ± 0.058.

For FFKLNVRERYWLVKGKSRFR, the amyloid nucleation score was found to be 2.96 ± 0.087.

On to VKYRDIMSRGSVVRQNDKVS, for which the amyloid nucleation score result is “inactive”.

EGICFLLMDCSCNNCFLALA gave an amyloid nucleation score of 4.66 ± 0.055.

CLGTWPNLLGSISTMYAD displayed an amyloid nucleation score of 0.854 ± 0.53.

DQCELVSGVWLSIRSADLPY returned an amyloid nucleation score of 0.176 ± 0.35.

NKYYLSNLMTCLAQKLSSSG came in with an amyloid nucleation score of 0.053 ± 1.1.

In the case of FRNAGIKRCPFVTRDQSTHF, the amyloid nucleation score result was “inactive”.

Substance MLYSSR displayed an amyloid nucleation score of -1.44 ± 0.44.

Consider TVALNSWARHGEML, for which the amyloid nucleation score was -0.375 ± 1.1.

Substance FRFWLIDAHLLWDFSYLDTR registered an amyloid nucleation score of 3.28 ± 0.13.

Substance SRFCSIIITMNVNHLPV returned an amyloid nucleation score of 5.79 ± 0.068.

Consider LNFIRCYVSPCVSFLSLYII, for which the amyloid nucleation score result was “inactive”.

Substance FFWNM had an amyloid nucleation score of -0.274 ± 0.34.

In turn, VGSNKGAIIGLMIVGGVVIA came in with an amyloid nucleation score of 3.11 ± 0.16.

For FGLQMQAWREKDHQENGLIQ, the amyloid nucleation score was 0.798 ± 0.31.

Consider KTTHDCGSAHVGL, for which the amyloid nucleation score is -0.504 ± 0.63.

For the substance VAFIFRSSWKSIPKTPKMYS, the amyloid nucleation score entry was “inactive”.

With REGPCGELGELPVLKRRGKH, the amyloid nucleation score was found to be 0.986 ± 0.41.

In the case of SRPFMIYREYVASSIVSNQL, the amyloid nucleation score is -0.606 ± 0.29.

In turn, VWTES returned an amyloid nucleation score of 1.83 ± 0.25.

In turn, TVRASCFRVSVRKEKKIVVA had an amyloid nucleation score of 0.233 ± 0.77.

In the case of IPYGMSWTWSH, the amyloid nucleation score is -0.565 ± 0.3.

In the case of WVDIPFW, the amyloid nucleation score was -0.83 ± 1.1.

The substance FMSVFTSAFLISHIMLV came in with an amyloid nucleation score of 0.21 ± 1.

On to AAVTFSISYFIKTLHLENSS, for which the amyloid nucleation score came to 0.169 ± 0.28.

TFAIIQYRNCLVTPISFKHF: the amyloid nucleation score was 6.5 ± 0.081.

For the substance TRGITCRLAYLQSLVNE, the amyloid nucleation score worked out at 0.383 ± 0.43.

FLSYFCIIFSTNLKLSSK registered an amyloid nucleation score of 2.1 ± 0.15.

For the substance SIFYLEGDHDLTTCTDLNTF, the amyloid nucleation score was 3.13 ± 0.094.

DQLVQGYGNTGWQLGYRMAG came in with an amyloid nucleation score of 5.35 ± 0.056.

For RRFVCRCFRYTHECVLGCFG, the amyloid nucleation score worked out at 1.52 ± 0.33.

For DYSGYHFMEQVP, the amyloid nucleation score was -0.363 ± 0.33.

On to LKRRPFDAFNVRMVLVNECG, for which the amyloid nucleation score result is “inactive”.

Turning to RGMWRCHNG, the amyloid nucleation score came to 1.49 ± 0.37.

YYGSGNPSQGVVSEWLVRDA gave an amyloid nucleation score of 0.571 ± 0.36.

Take HIDEYKWT: the amyloid nucleation score was found to be 0.546 ± 0.8.

Substance SPHLGLMCK showed an amyloid nucleation score of 0.416 ± 0.8.

MYRRSSWHLWWSKELFDAIY gave an amyloid nucleation score of -0.723 ± 0.79.

As to VIKCLVPSLIKSFRRHWFNT, the amyloid nucleation score is -0.708 ± 0.79.

With WSRADDRQWGPRLDNVVVMV, the amyloid nucleation score came to 0.83 ± 0.45.

Substance CHSRLLEYGENCNRIEYCLC came in with an amyloid nucleation score of -0.459 ± 0.27.

Regarding RLDRVIFY, the amyloid nucleation score was determined as 1.85 ± 0.099.

The substance RAMVPHHNADGCGLLQDTQ came in with an amyloid nucleation score of 1.14 ± 0.38.

Substance GHMQYSYFLDLYSKLFCVFN came in with an amyloid nucleation score of 4.52 ± 0.062.

DIVIYWV registered an amyloid nucleation score of -0.139 ± 0.63.

Consider CGYLRDTWWFFCVTLRNRGV, for which the amyloid nucleation score amounted to 1.12 ± 0.27.

Substance DNYLYYYFYSFRLTEALFIC came in with an amyloid nucleation score of -0.297 ± 1.1.

In the case of CVLYCVGFN, the amyloid nucleation score was 6.483 ± 0.042.

On to LSDCE, for which the amyloid nucleation score result was “inactive”.

ICWRHTGIICKAGSNRSH: the amyloid nucleation score result is “inactive”.

CSMMNLKSFLADCSIPAFTG: the amyloid nucleation score is -0.962 ± 0.64.

As to WLGRCVNNNLNDVCDFQT, the amyloid nucleation score was -1.17 ± 0.39.

In the case of PNRYYQLGTYFLNVQVRQFG, the amyloid nucleation score is 4.18 ± 0.045.

With LAIDIMPFPCDTLS, the amyloid nucleation score was -0.289 ± 0.26.

Take NTHFFVMRVEFGPWYTSSCS: the amyloid nucleation score was 2.42 ± 0.21.

The substance RVSYDF displayed an amyloid nucleation score of 0.43 ± 0.65.

DDFGCLYFYILYS: the amyloid nucleation score result was “inactive”.

KKSRNPHGKFTWTFGFVKKL showed an amyloid nucleation score of -1.76 ± 1.1.

As to TSQLSFYKHSLVY, the amyloid nucleation score entry is “inactive”.

VRDLTCSNNITILFMHW: the amyloid nucleation score stood at 6.13 ± 0.079.

On to MYLVYHYLSVRAFLFMSTMV, for which the amyloid nucleation score was -0.39 ± 0.61.

For VTAAIIVFCNGVLVRWTFIM, the amyloid nucleation score was -0.99 ± 1.

Substance SFLVSFHPMS showed an amyloid nucleation score of -1.33 ± 0.48.

As to SYWGQIGRSHTSCLCPSDQV, the amyloid nucleation score result was “inactive”.

Substance HGNWGLLYLTDALVKMIQDV came in with an amyloid nucleation score of -0.311 ± 0.3.

In turn, DNVLYHPDGFGMISALTGVV showed an amyloid nucleation score of -0.753 ± 0.45.

Substance HGHASFIRF had an amyloid nucleation score of 2.13 ± 0.2.

Substance CYSTLGLSG showed an amyloid nucleation score of 0.516 ± 0.81.

Take MCGSDNYILGLFWVYFMTNF: the amyloid nucleation score entry is “inactive”.

The substance TFRYVWLSHPV gave an amyloid nucleation score of 3.63 ± 0.11.

The substance CDFMYRLMSTYTHTFLVSLR came in with an amyloid nucleation score of 1.41 ± 0.14.

For the substance VSTILYLDY, the amyloid nucleation score was 0.218 ± 1.1.

On to VYLVRKWRSGWRYLTRVI, for which the amyloid nucleation score was 1.24 ± 0.41.

PYQLRVSLTLMLISGSLDIY displayed an amyloid nucleation score of 0.47 ± 0.5.

Substance GVISYMTSRGRGLSNNMSNW showed an amyloid nucleation score of -0.15 ± 0.56.

The substance EARVSRLFT gave an amyloid nucleation score of 0.542 ± 0.18.

For the substance GGTSLRNTLGICLNYLQS, the amyloid nucleation score entry was “inactive”.

Take FWYSCR: the amyloid nucleation score is -0.889 ± 0.41.

Regarding ISDFQACIRGDRWDEKGYIS, the amyloid nucleation score entry was “inactive”.

As for KYNQPIMNSSSRGADCGCVR, the amyloid nucleation score amounted to 4.16 ± 0.07.

The substance GNIMSFSFMPDLGISFCPGC gave an amyloid nucleation score of 6.515 ± 0.049.

GVTPYCKRHV showed an amyloid nucleation score of -1.14 ± 0.78.

In the case of QVYCQAVNYKENRVYFMGVP, the amyloid nucleation score turned out to be 5.2 ± 0.054.

GSPWGSHGRHGLKHTKALKA gave an amyloid nucleation score of 1.1 ± 0.25.

Consider TYEIFLVPS, for which the amyloid nucleation score was 0.41 ± 0.74.

Regarding DFYVSVPLRNCFSMSFIKWV, the amyloid nucleation score is -0.766 ± 0.48.

As for FFMYHAVL, the amyloid nucleation score amounted to 1.02 ± 0.34.

VISKVSLDVCRCIRFLHYDS came in with an amyloid nucleation score of 7.692 ± 0.061.

As to DFSTLAPLKLVMHI, the amyloid nucleation score was -0.267 ± 0.54.

Substance SMASGILCDAAYNACSQGCG yielded an amyloid nucleation score of 0.632 ± 0.48.

As for YHCRSEVTCWLEYDG, the amyloid nucleation score is 0.712 ± 0.28.

On to IITLSYGGCSVGPCGQ, for which the amyloid nucleation score is 7.371 ± 0.057.

Substance CRRSNFNYQGVLGYWHRFAG registered an amyloid nucleation score of -0.755 ± 1.1.

Consider NRQLWYPSINKYFFKSADPL, for which the amyloid nucleation score result was “inactive”.

SGFGCLFTMW returned an amyloid nucleation score of 1.63 ± 0.27.

Turning to CSYPNTLNCELMGILCYVGN, the amyloid nucleation score amounted to 6.47 ± 0.024.

Take NEYMYVR: the amyloid nucleation score was 0.969 ± 0.52.

The substance DAVMVWVGDV registered an amyloid nucleation score of 0.179 ± 0.17.

For the substance YSSTTITFYNWDRVTSRRLA, the amyloid nucleation score is -0.832 ± 0.44.

LITQKHFTRVTNMPIRLCSL returned an amyloid nucleation score of -0.491 ± 0.41.

As to VASRFDSSYMCKMAFI, the amyloid nucleation score is -0.651 ± 0.54.
